Data set [1] is classed as physicochemical. To be noted: pH 7.4. As to the method:
1-Octanol/water distribution coefficients (log D) were determined by applying the shake-flask-method. 20 µL of the reaction mixture were poured into 580 µL of 5xPBS (pH 7.4). Afterwards, 600 µL of 1-octanol was added and the two-phase-system was vigorously stirred for 5 min. Then, the samples were centrifuged, the phases were separated and the count rates were measured using ISOMED2160 sodium iodide crystal detector (at least 4 h after phase separation due to initial decay products).

The conditions of data set [2]: over 7 days. How it is done: The final conjugates mcp-M-alb-PSMA and mcp-D-alb-PSMA were successfully radiolabeled with ^225Ac at a concentration down to 10^-6 M with radiochemical conversions of higher than 99% within 15 min at room temperature and a resulting molar activity of 1 MBq/nmol. The radiolabeled actinium complexes [^225Ac]Ac-mcp-M-alb-PSMA and [^225Ac]Ac-mcp-D-alb-PSMA were characterized regarding decomplexation (by radio-TLC) and degradation (by radio-HPLC). […] Log D values for [^225Ac]Ac-mcp-M-alb-PSMA and [^225Ac]Ac-mcp-D-alb-PSMA were determined at pH 7.4 to be ‑2.4 and -1.7, respectively.
^225Ac was commercially supplied by ITM as [^225Ac]AcCl3. Radiolabeling was performed using 100 kBq ^225Ac, the respective ligand stem solution (10^-2 M - 10^-6 M) to reach the required ligand concentration (10^-3 M - 10^-7 M), the necessary amount of 2,5-dihydroxybenzoic acid (final concentration 0.1 M) and a volume of 0.2 M NH4OAc (pH 6) to adjust a total volume of 100 µL. […]
Once the labeling reaction was finished, samples were taken out and the ^225Ac-radioconjugates were analyzed via TLC (two systems: 1 - 0.05 M EDTA (pH 7) on silica plates; 2 - 70/30 acetonitrile/H2O on alugram RP-CN plates) and analytical HPLC on a Jasco HPLC system with GABI analyzer (Elysia Raytest) for gamma detection on a Phenomenex Phenyl-Hexyl column in water/acetonitrile (0.1% TFA each).

For a further data set, the target named is PSMA (Homo sapiens, UniProt Q04609). Description: Saturation binding studies on PSMA-positive LNCaP cells. The note with it: 95% confidence interval in brackets; for Kd: on ice. How it is done:
The cell binding behavior of the ^225Ac-labeled, 4-(p-iodophenyl)butyrate-containing PSMA radioconjugates [^225Ac]Ac-mcp-M-alb-PSMA and [^225Ac]Ac-mcp-D-alb-PSMA was analyzed in saturation binding studies using PSMA-positive LNCaP cells.
Figure 2 Saturation binding curves for (A) [^225Ac]Ac-mcp-M-alb-PSMA and (B) [^225Ac]Ac-mcp-D-alb-PSMA. Nonspecific binding was determined in the presence of 500 µM unlabeled PSMA-617. Specific binding was calculated as the difference between total and nonspecific binding (n = 3 for each data point).
Saturation binding studies to determine the equilibrium dissociation constants (KD) and the maximum binding capacities (Bmax) were performed as described elsewhere. In short, 30000 LNCaP cells were seeded in 48-well microplates (Greiner Bio-One GmbH, Frickenhausen, Germany) and cultivated for 48 h to allow cell adhesion and growth. During the experiment, cells were kept on ice and all reagents were added ice-cold. The cell culture medium was replaced by PBS (200 µL/well) and the microplates were preincubated for 30 min at 4 °C. The ^225Ac-radioconjugates were added to the wells in a volume of 200 µL at different concentrations (15 pM to 500 nM). The nonspecific binding was assessed in parallel by blocking the LNCaP cells with a 1000-fold excess of unlabeled PSMA-617. After incubation of the microplates for 90 min on ice, the cells were washed three times with ice-cold PBS. The cells were lysed in 0.1 M NaOH containing 1% (w/v) sodium dodecyl sulfate. The activity of cell lysates was measured using an automatic gamma counter (Hidex Deutschland Vertrieb GmbH, Mainz, Germany).

Data set [3] deals with LNCaP tumor-bearing SCID mice. In kind it is in vivo, mouse. How it is done:
Formalin-fixed and paraffin-embedded mouse tissues were cut in 5 µm sections and immunostained with appropriate antibodies according to standard techniques as well as with standard H&E staining. Antigen retrieval was performed in citrate buffer (pH 6) for all primary antibodies: Ki-67 (clone MIB1, DAKO; dilution 1:200), γH2AX (clone JBW301, Millipore; dilution 1:2500) and PSMA (clone YPSMA-1, Abcam; dilution 1:1000). The presence or absence of necrosis and its percentage in the tumor samples were evaluated by experienced pathologist. […] The data were analyzed using Kruskal-Wallis test followed by Dunn post hoc test using GraphPad Prism version 7.05 (GraphPad Software, San Diego, CA, USA).

A word on the logD: it is the decadic logarithm of the distribution of all forms, ionised or not, between an organic phase and buffer at a given pH. For orientation: Kd means the constant that tells how readily two partners part at equilibrium. A high value points to weaker binding.

Marks after values point to notes of the source that are not given here.

Sequence of PSMA (Q04609 whole entry): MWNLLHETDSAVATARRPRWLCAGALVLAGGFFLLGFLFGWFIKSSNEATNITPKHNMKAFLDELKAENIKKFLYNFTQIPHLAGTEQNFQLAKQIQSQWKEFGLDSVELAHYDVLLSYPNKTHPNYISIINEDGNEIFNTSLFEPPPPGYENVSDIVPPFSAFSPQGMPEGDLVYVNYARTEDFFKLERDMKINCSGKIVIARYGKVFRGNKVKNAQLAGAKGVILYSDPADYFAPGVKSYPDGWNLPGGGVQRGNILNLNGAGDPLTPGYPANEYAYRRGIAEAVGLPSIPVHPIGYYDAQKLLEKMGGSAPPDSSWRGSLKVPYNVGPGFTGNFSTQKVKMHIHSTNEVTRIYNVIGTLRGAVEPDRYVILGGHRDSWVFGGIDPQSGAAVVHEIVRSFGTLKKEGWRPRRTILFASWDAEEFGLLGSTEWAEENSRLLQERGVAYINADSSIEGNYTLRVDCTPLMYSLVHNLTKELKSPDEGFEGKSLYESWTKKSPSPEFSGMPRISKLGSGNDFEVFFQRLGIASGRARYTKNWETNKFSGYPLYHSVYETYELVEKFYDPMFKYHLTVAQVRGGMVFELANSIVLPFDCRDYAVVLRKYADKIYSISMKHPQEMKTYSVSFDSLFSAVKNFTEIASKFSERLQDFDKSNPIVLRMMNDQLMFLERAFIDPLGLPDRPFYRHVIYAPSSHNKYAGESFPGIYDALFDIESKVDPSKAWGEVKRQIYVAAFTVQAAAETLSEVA

In turn, `O=C(O)CC[C@H](NC(=O)N[C@@H](CCCCNC(=O)[C@H](Cc1ccc2ccccc2c1)NC(=O)[C@H]1CC[C@H](CNC(=O)[C@H](CCCCn2cc(COc3cc(CN4CCOCCOCCN(Cc5cc(OCc6cn(CCCC[C@H](NC(=O)[C@H](CCC(=O)O)NC(=O)CCCc7ccc(I)cc7)C(=O)NC[C@H]7CC[C@H](C(=O)N[C@@H](Cc8ccc9ccccc9c8)C(=O)NCCCC[C@H](NC(=O)N[C@@H](CCC(=O)O)C(=O)O)C(=O)O)CC7)nn6)cc(C(=O)O)n5)CCOCCOCC4)nc(C(=O)O)c3)nn2)NC(=O)[C@H](CCC(=O)O)NC(=O)CCCc2ccc(I)cc2)CC1)C(=O)O)C(=O)O` [[^225Ac]Ac-mcp-D-alb-PSMA, metal not drawn] gave a logD in data set [1] of -1.7. Besides, the “^225Ac release (decomplexation, radio-TLC)” value in data set [2] is given as “did not show any ^225Ac release”. At PSMA, the Bmax is reported as 1.96 (1.89 to 2.04)^# pmol/mg of protein and binding was characterised by a dissociation constant (Kd) of 11.6 nM. In data set [3] (72, 120 and 168 h p.i.), the “H&E stain of tumor tissue (necrosis)” value is “necrotic lesions in the group 72 h p.i”. In addition, the “average γH2AX histoscore, kidney” value in data set [3] (mouse, in vivo) is listed as 99.

In turn, `O=C(O)CC[C@H](NC(=O)N[C@@H](CCCCNC(=O)[C@H](Cc1ccc2ccccc2c1)NC(=O)[C@H]1CC[C@H](CNC(=O)[C@H](CCCCn2cc(COc3cc(CN4CCOCCOCCN(Cc5cccc(C(=O)O)n5)CCOCCOCC4)nc(C(=O)O)c3)nn2)NC(=O)[C@H](CCC(=O)O)NC(=O)CCCc2ccc(I)cc2)CC1)C(=O)O)C(=O)O` [[^225Ac]Ac-mcp-M-alb-PSMA, metal not drawn] gave a logD in data set [1] of -2.4. Also, the “^225Ac release (decomplexation, radio-TLC)” value in data set [2] is “did not show any ^225Ac release”. Also, on PSMA, the Bmax is listed as 0.46 (0.43 to 0.49)^# pmol/mg of protein and binding was put at a Kd of 23.4 nM. Also, in data set [3] (compared to untreated controls), the “Ki67 expression in tumor (cellular proliferation)” value was “did not show any significant decrease in proliferation” and the “γH2AX staining of tumor tissue (DNA damage)” value is “significant DNA damage in tumor cells”. Moreover, in data set [3] (mouse, in vivo), the “H&E stain of liver tissue (necrosis)” value is reported as “significant necrosis” and the “average γH2AX histoscore, kidney” value is 62.

For the origin of these results see PMC9691366, “Modulating the pharmacokinetic profile of Actinium-225-labeled macropa-derived radioconjugates by dual targeting of PSMA and albumin” (Theranostics, 2022).
